Test results published in the nanobody polyreactivity screen of Harvey et al. (2022).

Assay: yeast display, Sf9 membrane polyspecificity reagent, FACS + sequencing; frameworks hold sequencing errors
How it was run: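 Using colony PCR, genes from sorted yeast display clones were amplified, then sequenced on MiSeq at 2 × 250 and filtered by CDR length. The clones had been stained with 10% biotinylated, detergent-solubilized Sf9 membrane reagent for 1 hour at 4 °C and sorted by FACS into low and high (top ~1%) gates on anti-HA and streptavidin fluorescence. Polyreactivity labels come from the gate of origin.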

Sequence	polyreactivity (PSR sort gate)
QVQLVESGGGLVQAGGSLRLSCAASGNIFTYNAMGWYRQAPGKERELVAAISWTADSTYYADSVKGRFTISRDNAKNTVYLQMNSLKPEDTAVYYFAADSQYADYGYWGQGTQVTVSS	high polyreactivity
QVQLVESGAGLVQARASHRLSCAASGSTLYAYAIGCSRQEPGKEREMVAAISGTGGSTYYADSVKGRFTISRDNAKNTVYLQMNTLKPEDTADYYCAAYYNYFGQRYYYWGQGTQVTVSS	high polyreactivity
QVQLVESGGGLVQAGGSLRLSCAASGRIFWDNAMGWYRQAPGKERELVAAIDYRGGNTNYADSVKGRFTISRDNAKNTVYFQMNSLKPEDTAVYYCNAEWAVRYPGYDYWGQGSQVTVSS	low polyreactivity
QVPLVESGGGLVQAGGSLSLSCAASGNIFPSYVMGWYSQAPGKERELVAAITGNGGSTYYADSVKGRFTISRDNAKNTVYLQMNSLTAEDTEVYYCATSAPRLLRYDSSSSPSYDNWGQGTKVTVSS	low polyreactivity
QVQLVESGGGLVQAGGSLRLSCAASGFIIQGNALGWYRQAPGTERELVAAISSSVSTYYADSVKGRFTISRDNAKNTVYLQMNSLKPEDNAVYDCNAGFPLSLWLGDYWGQGTLVTVSS	low polyreactivity
QVQLVESGGGLVQAGGSLRLSCAASGNTFTWYTMGWYRQAPGKERELVAVITSDGSTYYADSVKGRFTISRDNAKNTVDLQMNSLKPEDTAVYYCNALSADWYPEEDYWGQGTQVTVSS	low polyreactivity
QVQLVESGGGLVQAGGSLRLSCAASGYIFTYYAMGWYRQAPGKERELVAAISRGGSTYYADSVKGRFTISRDNAKYTVYLQMNSLKPEDTAVYYCNARPRWPWVVNFGYYYWGQGTQVTVSS	low polyreactivity
QVQLVESGGGLVQAGGSLRLSCAASGRIFVRNAMGWYRQAPGKEREFVAAISRSGGSTYYAYSVKGRFTISRDNAKNSVYLQMNSLKPEDTAVYYCAADYPKTYTSKFNYWGQGTQVTVSS	high polyreactivity
QVQLVESGVGLVQAGGSLRLSCAASGRTFAIYTMGWYRQAPGKERELVARISIRGGSTYYADSVKGRFTISRDTAKITFYLQLTSLKPEDNAVYYCAAVGYFGGYRYDYWGQGTQVSVSS	high polyreactivity
QVQLVESGGGLVQAGGSLRLSCAASGSTFRGNDMGWYRQAPGKERELVASIDWSGGSTYYADSVKGRFTISRDNAKNTVYLQMNSLKPEDTAVYYCAADTSYWYDYYIDYVGYYYWGQGTQVTVSS	high polyreactivity
QVQLVESGGGLVQAGGSLRLSCAASGRTFQWNGMGWYRQAPGKERELVDTIRRGGSTNYADSVKGRFTISRDNAKNTVDLQMNSLKPEDTAVYYCAADRRYPGGWGFEYNYWGQGTQVTVSS	low polyreactivity
QVQLVESGGCLVQAGGSLRLSCAASGFTLTAYAMGWYRQAPGKEREFVAAISTSGTRTYYADSVKGRFTISRDNAKITVYLQMYSLKPDDTAVYYCAARYSGYQYWKFNYWGQGTQVTVSS	high polyreactivity
QVQLVESGGGLVQAGGSLRLSCAASGRIFYEYAMGWYRQAPGKERELVAISTSGGNTYYADSVKGRFTISRDNAKNTVYLQMNSLKPEVTAVYYCAARLQYYPYYYWGQGTQVTVSS	high polyreactivity
QVQLVESGGGLVQAGGSLRLSCAASGRTYSQNAMGWYRQSPGKERELVAAIRRGGSTNYADSVKGRFTISRDNAKNTVYLQMNSLKPEDSAVYDCAADLRRNGWGFDYWGLGTQVTVSS	high polyreactivity
QVQLVDSGGGLVQAGGSLRLSCAAYGSTFRGYAMGWYRPAPGKERELVAAISWSGGITYYADSVKGRFTISRDNAKNTVYLQMNRLKPEDTAVYYCAAVWDQVSDRYMLEYCGQGTQVTVSS	high polyreactivity
QVQLVESGGGLVQAGGSLRLSCAATGSIFGIYTMGWDRQAPGKERELVAAIRRSGSTNYADSVKGRFTISRDNEKNTVYLQMNSLKPEDSAVYYCAADALSDEYDYWGQGTQVTVSS	low polyreactivity
QVQLVESGGGLVQAGGSLRLSCAASGRIFDRYAMGWYRPAPGKERELVAASTGSGGRTYYADSVKGRFTISRDNAKNTVYLQMNSLKPEDTAVYYCARAFGQRRYYYWGQGTQVTVSS	high polyreactivity
QVQLVESGGGLVQAGGSLRLSCAASGRTFAYYTMGWYRQAPGKERELVARISGYGGSTYYADSVKGRFTLSRDNAKNTVYLQMNSLKPEDTAVYYCNVVGAYYRYDYWGQGTQVTVSS	high polyreactivity
QVQLVESGGGLVQAGGSLRLSCAASGSIYRWYAMGWYRQAPGKERELVASISSGTRTNYADSVKGRFTISRDNAKNTVYLQMNSLKPEDTAVYYCAAPYVKRWWGYGYWGQGTQVTVSS	high polyreactivity
QVQLVESGGGLVQAGGSLRLSCAASGSIFYRNAMGWYRQAPGKERELVAAISSRGTRTYYADSVKGRFTISRDNAKNTVYLQMNSLKPEDTAVYYCAAADYRFYNGPYSRRWLYGYWGQGTQVTVSS	high polyreactivity
QVQLVESGGGLVQAGGSLRLSCAASGGTIDNAMGWYRQAPGKERELVAAISKHGGRTYYADSVKGRFTISRDNAKNTVYLQMNSLKAEDTAVYYCAADAFRGFFWGQGTQVTVSS	high polyreactivity

Sequence	polyreactivity (PSR sort gate)
QVQLVESGGCLVQAGGSLRLSCAASGFTFSYYAMGWYRQAPGKERELVAAISSSSGTTYYADSVKRRFTISRDNANNTVYLQMNSLKPEDTAVYYCVVIARDGYDYWGQGTQVTVSS	high polyreactivity
QVQLGESGGGLVQAGGSLRLSCAASGFTFGRYTMGWYRPAPGKERELVASITSSGARTYYADSVKGRFTISRDNAKNTVYLQMNSLKPEDTAVYYCNAGKRGSTYYYWGQGTQVTVSS	high polyreactivity
QVQLVESGGGLVQAGGSLRLSCAASGRTFFLYTIGWYRQAPGKEREFVAAITTIGGSTYYADSVKGRFTISRDNAKNTVSLQMHSLKPEDTAVYYCNARVGPELHDYWGQGTQVTVSS	low polyreactivity
QVQHVESGGGLVQAGGSLRLSCAASALTFSSNAMGWYRQAPGKERELVAVITNGGSTNYADSVKGRLTISRDNAKNTVYLQMNSLKPEDTAVYYCAIDGGPAQDIGMDYWGQGTHVTVSS	low polyreactivity
QVQLVESGAGLVQAGGSLRLSCAASGITFASYAMGWYRQAPGKERELVAAITWGGSRTYYADSVKGRFTISRDNAKNSVYLQMNSLKPEDTAVYYCNAHTRYGPDYSYYYWGQGSQVTVSS	high polyreactivity
QVQLVESGGGLVQAGGSLRLSCAASGRNFPGYARGWYRQAPGKEGELVAGINWSSGSTYYADSVKGRFTISRDNAKNTVYLQMNSLKPEDTAVYYCNALGYWRSTVHYVVGEVDYWGQGTQVTVSS	low polyreactivity
QVQLVESGGGLVQAGGSLRISCDASGRTFYWNAMGWYRQAPGKEREFVAAITNTAVSTYYADSVKGRFTISRDNAKNTVYLQMNSLKPEATAVYYCAKSGNAGYRTYLRDYWGQGSQVTVSS	low polyreactivity
QGQLVESGGGLVQAGGSLRLSCAASGRTFYRNAMGWYRQAPGKEREFVAAITSIGGATYYADSVKGRFTISRDNAKNTVDLQMNSLKPEDTAVYYCAAKGFRYPEYDYWGQGTQVTVSS	low polyreactivity
QVQLVESGGGLVQAGGSLRLSCAASGSTFDPYAMGWYRQAPGKERELVAAITSGGGTKYADSVKGRFTISRDNAKNTVYLQMNSLKPEDTAVYYCATDIRAEHGYWGQGTQVTVSS	low polyreactivity
QVQLVESGGGLVQAGGSLRLSCAASGRTFWANAMGWYRQAPGKERELVAAINYSGGRTYYADSVKGRFTISRDNAKNTVYLQMNSLKPEDTAVYYCNVVHGGAISDYWGQGTQVTVSS	high polyreactivity
QVQLVESGGGLVQAGGSLRLSCAPSGRIFYAYAMGWYRHAPGKERELVAAITIGGNTNYADSVKGRFTSSRDNAKNTVYLQMNSLKPEVTAVYDCNARTYYYPWRGYHVVGSNDLGYWGQGTQVTVST	low polyreactivity
QVQLVESGGGLVQAGGSLRLSCDASGRTCFKYAMGWYRQAPGKERELVATITSSGGITYADSVKGRFTISRDNAKNTVYLQMNSLKPEDTAVYYCNARVWVTHYSELNYWGQGTQVTVSS	low polyreactivity
QVQLVESGVGLVQAGGSLRLSCAASGRIFRLYAMGWYRQAPGKERELVAAISSSGGDTYYADSVKGRFTISRDNAKNTVYLQMNSLKPEDTAVYDCNARKRYANVHYNYWGQGTQVTVSS	high polyreactivity
QVQLVESGGGLVQAGGSLRLTCAASGSIFYTNAMGWYRQAPGKERELVAAIRWSGGRTYYADSVKGRFTISRDNAKNTVYLQMNSLKPEDTAVYYCTVVVRYPSAYAYWGQGTQVTLSS	high polyreactivity
QVQLVESGGGLVQAGGSLRLSCAASGSIFNYYAMGWYRQAPGKEREFVAAISWRGGSTYYADSVKGRFTISRDNAKNTVYLQMNRLKPEDTAVYYCNARVYGVYRRRVNYWGQGTQVTVSS	high polyreactivity
QVQLVESGGGLVQAGGSLRLSCAASGLIFRPYAMGWYRQAPGKERELVAALTSGGSTDYADSVKGRFTISRDNAKNTVYLQMNSLKPEDTAVYYCNADIYPHDGYPWQGDYDYWGQGTQVTVSS	low polyreactivity
QVQLEESGGGLVQAGGSLRLSCAASGSIFVYYARGWYRQAPGKERELVATISRRGGSTYYADSVKGRFTISRDNAKNTVYLQMTSLKPEDTAVDYCNAAPSPVGSARSSLTRYTGMDYWGQGTQVSVSS	high polyreactivity
QVQLVESGGGLVQAGGSLRLSCAASGRTFYWYAMGWYRQAPGKERELVAAITSGGSTNYADSVKGRFTISRDNAKNTVYLQMNSLKPEDTAVYYCAARRSVRRGGDYYWGQGTQVTVSS	high polyreactivity
QVQLVASGGGLVQAGGSLLLSCAASGRIFAEYAMGWSRQAPGKERELVAVIDGTGGSTYYADSVKGRFTISRDNEKNTVYLLMNSLNPEDTAVYYCAATGRGSGRRFNYWGQGTQVTVSS	high polyreactivity
QVQLVETGGGLVHAGGSLRLSCAASGSIFDAYAMGWYRQAPGKERELFASITSGGRTNYADSVKGRFTISRDNAKNTVYLQMNSLKPEDTAVYYCAKVRTRATPGLDYYYWGQGTQVTVSS	high polyreactivity
